{"source": "paper PMC8718881", "about": "“Engineering of the Recombinant Expression and PEGylation Efficiency of the Therapeutic Enzyme Human Thymidine Phosphorylase” (Frontiers in Bioengineering and Biotechnology, 2021)", "target": "the molecule itself", "experiment": "SEC; analytical SEC; purified protein about 2 mg/ml in PBS; TSKgel G4000SWxl; mobile phase 90% phosphate buffer (50 mM sodium phosphate, 200 mM NaCl, pH 7.2) and 10% ethanol; BioRad gel filtration standard as markers", "data": [{"protein": "HsTP^218 (human thymidine phosphorylase truncated before K34, C-terminal His6-tag) (enzyme, starting methionine and a glycine scar residue from cloning with the NcoI site; they precede K34 (M1-G2-K3-Q4); human thymidine phosphorylase (HsTP, TYMP), lacking the first thirty-three residues of the full-length protein; starts at K34, full-length numbering of UniProt P19971; Codon-optimized synthetic gene in pET28a; No cleavage of the His6-tag is described; also called expression-optimized …) MGKQLPELIRMKRDGGRLSEADIRGFVAAVVNGSAQGAQIGAMLMAIRLRGMDLEETSVLTQALAQSGQQLEWPEAWRQQLVDKHSTGGVGDKVSLVLAPALAACGCKVPMISGRGLGHTGGTLDKLESIPGFNVIQSPEQMQVLLDQAGCCIVGQSEQLVPADGILYAARDVTATVDSLPLITASILSKKLVEGLSALVVDVKFGGAAVFPNQEQARELAKTLVGVGASLGLRVAAALTAMDKPLGRCVGHALEVEEALLCMDGAGPPDLRDLVTTLGGALLWLSGHAGTQAQGAARVAAALDDGSALGRFERMLAAQGVDPGLARALCSGSPAERRQLLPRAREQEELLAPADGTVELVRALPLALVLHELGAGRSRAGEPLRLGVGAELLVDVGQRLRRGTPWLRVHRDGPALSGPQSRALQEALVLSDRAPFAAPSPFAELVLPPQQ", "values": [{"measurement": "stoichiometry N", "result": 2}]}]}
